Assay results taken from patent EP4636087A1, “ANTI-GPA33 ANTIBODY AND UTILIZATION THEREOF” (Kagoshima University, priority 2022, dated 2024).

B1: G17-R1CRD-His (other)
chain: QMQLVQSGGGLVKPGGSLRLSCAASGFTFSSYNMNWVRQAPGKGLEWVSSISSSGDFMYYADSVKGRFTISRDNAKNSLYLQMSSLRAEDTAVYYCAREGPGTPFDYWGQGTLVTVSSGGGGSGGGGSGSTGSAIQLTQSPSSLSASVGDRVTITCRASQSISSFLNWYQHKPGKAPKLLIYVASSLQSGVPSRFSGSGSGTDFTLTISSLQPEDFATYYCQQSHNTPYTFGQGTKLEIKGGSGGSISAEGSQACAKGCELCSEVNGCLKCSPKLFILLERNDIRQVGVCLPSCPPGYFDARNPDMNKCIKCKIEHCEACFSHNFCTKCKEGLYLHKGRCYPACPEGSSAANGTMECSSPAHHHHHHGA
B2: G17-R4CRD-His (other)
chain: QMQLVQSGGGLVKPGGSLRLSCAASGFTFSSYNMNWVRQAPGKGLEWVSSISSSGDFMYYADSVKGRFTISRDNAKNSLYLQMSSLRAEDTAVYYCAREGPGTPFDYWGQGTLVTVSSGGGGSGGGGSGSTGSAIQLTQSPSSLSASVGDRVTITCRASQSISSFLNWYQHKPGKAPKLLIYVASSLQSGVPSRFSGSGSGTDFTLTISSLQPEDFATYYCQQSHNTPYTFGQGTKLEIKGGSGGSGGNCTGCIICSEENGCSTCQQRLFLFIRREGIRQYGKCLHDCPPGYFGIRGQEVNRCKKCGATCESCFSQDFCIRCKRQFYLYKGKCLPTCPPGTLAHQNTRECQGHHHHHHGA
B3: R1CRD-G17-His (other)
chain: ISAEGSQACAKGCELCSEVNGCLKCSPKLFILLERNDIRQVGVCLPSCPPGYFDARNPDMNKCIKCKIEHCEACFSHNFCTKCKEGLYLHKGRCYPACPEGSSAANGTMECSSGGGGSGGGGSGGGGSQMQLVQSGGGLVKPGGSLRLSCAASGFTFSSYNMNWVRQAPGKGLEWVSSISSSGDFMYYADSVKGRFTISRDNAKNSLYLQMSSLRAEDTAVYYCAREGPGTPFDYWGQGTLVTVSSGGGGSGGGGSGSTGSAIQLTQSPSSLSASVGDRVTITCRASQSISSFLNWYQHKPGKAPKLLIYVASSLQSGVPSRFSGSGSGTDFTLTISSLQPEDFATYYCQQSHNTPYTFGQGTKLEIKHHHHHHGA
B4: G17-R1CRD-GS3-Fcm (Fc fusion)
chain: QMQLVQSGGGLVKPGGSLRLSCAASGFTFSSYNMNWVRQAPGKGLEWVSSISSSGDFMYYADSVKGRFTISRDNAKNSLYLQMSSLRAEDTAVYYCAREGPGTPFDYWGQGTLVTVSSGGGGSGGGGSGSTGSAIQLTQSPSSLSASVGDRVTITCRASQSISSFLNWYQHKPGKAPKLLIYVASSLQSGVPSRFSGSGSGTDFTLTISSLQPEDFATYYCQQSHNTPYTFGQGTKLEIKGGSGGSISAEGSQACAKGCELCSEVNGCLKCSPKLFILLERNDIRQVGVCLPSCPPGYFDARNPDMNKCIKCKIEHCEACFSHNFCTKCKEGLYLHKGRCYPACPEGSSAANGTMECSSGGGGSGGGGSGGGGSEPKSADKTHTCPPCPAPEAEGAPSVFLFPPKPKDTLMISRTPEVTCVVVDVSHEDPEVKFNWYVDGVEVHNAKTKPREEQYNSTYRVVSVLTVLHQDWLNGKEYKCAVSNKALPASIEKTISKAKGQPREPQVYTLPPSREEMTKNQVSLTCLVKGFYPSDIAVEWESNGQPENNYKTTPPVLDSDGSFFLYSKLTVDKSRWQQGNVFSCSVMHEALHNHYTQKSLSLSPGK
B5: G17-R2CRD-His (other)
chain: QMQLVQSGGGLVKPGGSLRLSCAASGFTFSSYNMNWVRQAPGKGLEWVSSISSSGDFMYYADSVKGRFTISRDNAKNSLYLQMSSLRAEDTAVYYCAREGPGTPFDYWGQGTLVTVSSGGGGSGGGGSGSTGSAIQLTQSPSSLSASVGDRVTITCRASQSISSFLNWYQHKPGKAPKLLIYVASSLQSGVPSRFSGSGSGTDFTLTISSLQPEDFATYYCQQSHNTPYTFGQGTKLEIKGGGGSGGGGSGGGGSNPICKGCLSCSKDNGCSRCQQKLFFFLRREGMRQYGECLHSCPSGYYGHRAPDMNRCARCRIENCDSCFSKDFCTKCKVGFYLHRGRCFDECPDGFAPLEETMECVEGHHHHHHGA
B6: GPA33-2RC17 cloned scFv phage (scFv)
scFv: QMQLVQSGGGLVKPGGSLRLSCAASGFTFSSYNMNWVRQAPGKGLEWVSSISSSGDFMYYADSVKGRFTISRDNAKNSLYLQMSSLRAEDTAVYYCAREGPGTPFDYWGQGTLVTVSSGGGGSGGGGSGSTGSAIQLTQSPSSLSASVGDRVTITCRASQSISSFLNWYQHKPGKAPKLLIYVASSLQSGVPSRFSGSGSGTDFTLTISSLQPEDFATYYCQQSHNTPYTFGQGTKLEIK
notes: also called G17
B7: GPA33-2RC28 cloned scFv phage (scFv)
scFv: EVQLVESGGGLVKPGGSLRLSCAASGFTFSSYSMNWVRQAPGKGLEWVSSISRDSTYIYYADSVKGRFTISRDNAKNSLYLQMNSLRAEDTAVYYCAREGVAGAFDIWGQGTMVTVSSGGGGSGGGGSGSTGSAIQLTQSPSSLSASVGDRVTITCRASQSISSYLNWYQQKPGKAPKLLIYIASSLQSGVPSRFSGSGSGTDFTLTISSLQPEDFATYYCQQSYNTWTFGQGTKVEIK
B8: 2RC28-Cys anti-GPA33 scFv (Cys-containing sequence, His tag and Myc tag at the C-terminal side), expressed in Escherichia coli (scFv)
scFv: EVQLVESGGGLVKPGGSLRLSCAASGFTFSSYSMNWVRQAPGKGLEWVSSISRDSTYIYYADSVKGRFTISRDNAKNSLYLQMNSLRAEDTAVYYCAREGVAGAFDIWGQGTMVTVSSGGGGSGGGGSGSTGSAIQLTQSPSSLSASVGDRVTITCRASQSISSYLNWYQQKPGKAPKLLIYIASSLQSGVPSRFSGSGSGTDFTLTISSLQPEDFATYYCQQSYNTWTFGQGTKVEIKAACTSAHHHHHHGAAEQKLISEEDLNGAA
notes: Periplasmic expression in E. coli HB2151, purified on a His tag column; also called 2RC28 scFv; anti-GPA33 single chain Fv-His
B9: GPA2RC17-Fc (anti-GPA33 single-chain Fv-Fc, scFv linked to human IgG1-Fc) (Fc fusion)
chain: QMQLVQSGGGLVKPGGSLRLSCAASGFTFSSYNMNWVRQAPGKGLEWVSSISSSGDFMYYADSVKGRFTISRDNAKNSLYLQMSSLRAEDTAVYYCAREGPGTPFDYWGQGTLVTVSSGGGGSGGGGSGSTGSAIQLTQSPSSLSASVGDRVTITCRASQSISSFLNWYQHKPGKAPKLLIYVASSLQSGVPSRFSGSGSGTDFTLTISSLQPEDFATYYCQQSHNTPYTFGQGTKLEIKPKSSDKTHTCPPCPAPEAEGAPSVFLFPPKPKDTLMISRTPEVTCVVVDVSHEDPEVKFNWYVDGVEVHNAKTKPREEQYNSTYRVVSVLTVLHQDWLNGKEYKCAVSNKALPASIEKTISKAKGQPREPQVYTLPPSREEMTKNQVSLTCLVKGFYPSDIAVEWESNGQPENNYKTTPPVLDSDGSFFLYSKLTVDKSRWQQGNVFSCSVMHEALHNHYTQKSLSLSPGK
notes: also called 2RC17 scFv-Fc; 2RC17-scFv-Fc
B10: GPA2RC28-Fc (anti-GPA33 single-chain Fv-Fc, scFv linked to human IgG1-Fc) (Fc fusion)
chain: EVQLVESGGGLVKPGGSLRLSCAASGFTFSSYSMNWVRQAPGKGLEWVSSISRDSTYIYYADSVKGRFTISRDNAKNSLYLQMNSLRAEDTAVYYCAREGVAGAFDIWGQGTMVTVSSGGGGSGGGGSGSTGSAIQLTQSPSSLSASVGDRVTITCRASQSISSYLNWYQQKPGKAPKLLIYIASSLQSGVPSRFSGSGSGTDFTLTISSLQPEDFATYYCQQSYNTWTFGQGTKVEIKPKSSDKTHTCPPCPAPEAEGAPSVFLFPPKPKDTLMISRTPEVTCVVVDVSHEDPEVKFNWYVDGVEVHNAKTKPREEQYNSTYRVVSVLTVLHQDWLNGKEYKCAVSNKALPASIEKTISKAKGQPREPQVYTLPPSREEMTKNQVSLTCLVKGFYPSDIAVEWESNGQPENNYKTTPPVLDSDGSFFLYSKLTVDKSRWQQGNVFSCSVMHEALHNHYTQKSLSLSPGK
notes: also called 2RC28 scFv-Fc; 2RC28 single-chain Fv-Fc

Key:
[1] = molecular target: T1, human GPA33 expressed on HEK293STF cells (EGFP-human GPA33 expression vector, ORIGENE RG210225) (human, UniProt Q99795 22-319); assay: cell-based or functional assay
T1 sequence (looked up): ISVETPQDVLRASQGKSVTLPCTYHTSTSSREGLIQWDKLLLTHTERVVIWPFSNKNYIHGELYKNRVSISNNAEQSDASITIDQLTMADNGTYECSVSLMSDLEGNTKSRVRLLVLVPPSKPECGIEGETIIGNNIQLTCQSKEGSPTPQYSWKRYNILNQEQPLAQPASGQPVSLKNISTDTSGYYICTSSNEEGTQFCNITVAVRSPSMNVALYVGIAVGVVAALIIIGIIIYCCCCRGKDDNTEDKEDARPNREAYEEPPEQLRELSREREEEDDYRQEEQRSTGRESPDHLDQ

[2] = molecular target: T2, mouse GPA33 expressed on CHO-K1 cells (mGPA33-expressing cells) (mouse, UniProt Q9JKA5 22-319); assay: FACS, cloned phage on GPA33-expressing CHO-K1 cells
T2 construct: whole, on cells
T2 sequence (looked up): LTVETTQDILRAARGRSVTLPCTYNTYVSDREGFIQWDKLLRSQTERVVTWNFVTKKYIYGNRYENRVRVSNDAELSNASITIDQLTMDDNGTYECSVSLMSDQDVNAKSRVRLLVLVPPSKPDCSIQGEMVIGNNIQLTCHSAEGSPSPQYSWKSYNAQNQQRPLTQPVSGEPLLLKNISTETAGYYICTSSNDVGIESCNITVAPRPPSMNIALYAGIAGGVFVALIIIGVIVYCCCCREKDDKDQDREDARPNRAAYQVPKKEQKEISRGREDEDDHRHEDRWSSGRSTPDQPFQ

[3] = molecular target: T3, human GPA33 expressed on CHO-K1 cells (hGPA33-expressing cells co-expressing GFP) (human, UniProt Q99795 22-319); assay: as above
T3 construct: whole, on cells; CHO-K1 transfected with an hGPA33 expression vector (ORIGENE) co-expressing GFP
T3 sequence (looked up): T1 sequence (looked up)

[4] = molecular target: T2, mouse GPA33 expressed on CHO-K1 cells …; assay: FACS, 0.1 µg scFv on GPA33-expressing CHO-K1 cells, anti-His-biotin and SA-PE detection
[5] = molecular target: T3, human GPA33 expressed on CHO-K1 cells …; assay: as above
[6] = molecular target: T4, human GPA33 recombinant protein (C-terminal His tag fusion protein, abcam) (human, UniProt Q99795 22-235, limits assumed); assay: SPR, Biacore T200, 25°C, GPA33-His amine-coupled on CM5, scFv-Fc as analyte, 1:1 binding model
T4 construct: Bought recombinant protein (abcam); also called hGPA33
T4 sequence (looked up): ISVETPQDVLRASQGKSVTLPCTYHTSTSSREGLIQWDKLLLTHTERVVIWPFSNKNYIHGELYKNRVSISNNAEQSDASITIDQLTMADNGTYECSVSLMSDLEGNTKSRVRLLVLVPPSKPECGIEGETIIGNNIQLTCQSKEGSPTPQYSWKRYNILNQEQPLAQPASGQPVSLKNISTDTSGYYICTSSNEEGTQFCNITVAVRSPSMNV

[7] = molecular target: T5, mouse GPA33 recombinant protein (C-terminal His tag fusion protein, abcam) (mouse, UniProt Q9JKA5 22-235, limits assumed); assay: as above
T5 construct: Bought recombinant protein (abcam); also called mGPA33
T5 sequence (looked up): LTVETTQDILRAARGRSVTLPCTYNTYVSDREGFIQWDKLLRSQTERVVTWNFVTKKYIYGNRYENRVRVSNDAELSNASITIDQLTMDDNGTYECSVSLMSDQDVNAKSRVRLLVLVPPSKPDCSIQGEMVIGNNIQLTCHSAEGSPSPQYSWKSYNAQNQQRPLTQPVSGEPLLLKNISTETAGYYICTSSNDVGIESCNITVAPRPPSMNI

Row | Binder | EC50(GPA33) (nM), Wnt/β-catenin reporter in 293STF cells expressing GPA33 [1] [nM] | EC50(MOG)/ EC50(GPA33) [1] | other results
1 | B1 | 0.031 | 968 | 
2 | B2 | 0.008 | 348 | 
3 | B3 | 0.027 | 307 | 
4 | B4 | 0.054 | > 556 | 
5 | B5 | 0.021 | 15.2 | 
6 | B6 |  |  | binding result [2]: binds; binding result [3]: binds
7 | B7 |  |  | binding result [2]: binds; binding result [3]: binds
8 | B8 |  |  | binding result [4]: binds; binding result [5]: binds
9 | B9 |  |  | Kd [6]: 1.4 nM; Kd [7]: 3.8 nM
10 | B10 |  |  | Kd [6]: 5.7 nM; Kd [7]: 6.9 nM
